The text below walks through data of publication PMC10914744, “Key homeobox transcription factors regulate the development of the firefly’s adult light organ and bioluminescence”.

Data set [1] concerns the target T1, AlABD-B (Aquatica leii, UniProt A0AAN7SB49 90-481). Put plainly: EMSA; poly(dI-dC); signal significantly reduced by unlabeled WT probe; LightShift EMSA kit; 2.0 ug protein (stored in PBS, 10% glycerol), 0.2 pmol probe, 2 ug/uL poly(dI-dC), 60 min at room temperature, native 6% PAGE; binding buffer salt and pH not stated. As to conditions: protein: recombinant; tags: His (pET28a, Ni-NTA); label: biotin; blunt.

Data set [2] addresses T1, AlABD-B. Put plainly: EMSA; poly(dI-dC); no significant complex detected; LightShift EMSA kit; 2.0 ug protein (stored in PBS, 10% glycerol), 0.2 pmol probe, 2 ug/uL poly(dI-dC), 60 min at room temperature, native 6% PAGE; binding buffer salt and pH not stated. As to conditions: protein: recombinant; tags: His (pET28a, Ni-NTA); blunt. For orientation: A gel shift assay detects complexes by their altered migration in electrophoresis.

T1 sequence (A0AAN7SB49 entry or part of it): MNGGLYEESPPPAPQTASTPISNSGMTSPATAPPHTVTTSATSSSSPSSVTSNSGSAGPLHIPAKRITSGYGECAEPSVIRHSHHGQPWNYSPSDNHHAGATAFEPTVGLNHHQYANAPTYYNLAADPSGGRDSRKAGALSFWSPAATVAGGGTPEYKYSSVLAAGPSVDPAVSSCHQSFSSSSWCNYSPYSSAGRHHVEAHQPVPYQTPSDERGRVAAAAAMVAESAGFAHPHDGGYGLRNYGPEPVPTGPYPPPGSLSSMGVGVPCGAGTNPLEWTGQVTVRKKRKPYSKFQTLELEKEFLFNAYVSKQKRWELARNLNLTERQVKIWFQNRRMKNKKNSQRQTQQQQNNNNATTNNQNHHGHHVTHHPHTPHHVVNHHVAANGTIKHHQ

B1: biotin-WT AlLuc1 promoter probe (dsDNA)
DNA 1: ATACATTAAAGTATCTAATAAAAATTAATGGTTCATTAAGATATATAAAAAACA
DNA 2: TGTTTTTTATATATCTTAATGAACCATTAATTTTTATTAGATACTTTAATGTAT
In the case of B1, in the data set with AlABD-B [1], the binding result was “binds”.

B2: ABD-B binding site mutation probe (dsDNA)
DNA 1: ATACATTAAAGTATCCGGCGGGAACCGGCAATCTGCCGGGATATATAAAAAACA
DNA 2: TGTTTTTTATATATCCCGGCAGATTGCCGGTTCCCGCCGGATACTTTAATGTAT
Regarding B2, the binding result with AlABD-B [2] was “no binding”.
